Assay results published in the DeepSol protein solubility set.

Assay: soluble on expression in E. coli; label from the status in PepcDB or PDB records

Sequence	soluble on expression in E. coli
MGSDKIHHHHHHMSLLSVSDVGKAYKTYRSELQRIAHWFFLPTKASSEHWVLKHINFAIEPGEAIGIIGQNGAGKSTLLKMITGTLQPTQGRVQVNGRIAAILELGMGFNPELSGRQNVYHAAGLMGFDVQQINDVIDDIEAFAEIGEYFDEAVRTYSSGMQMRVAFAVATAFRPEILIVDEALSVGDSYFQHKSFERIREFQRLGTSLLIVSHDRGAIQSLCSRALLLENGSIIKDGPPEQVMDYYNALIAEKENSTVQVKQLADGTVQTQSGSGEATIGTVALYDMQGTPVEFVAVGDKVTLSVQVEVHAPIPELVVGYVIKDRLGQHVFGTNTHHLGKAQKALETGEKLEYRFDFEMNLGPGSYSVAVALHANEVHIGSNYEWRDLALVFNVVNTSKPQFVGMAWVPTAVECIR	not soluble
MVPHDKDKDNPSELIRGKDVAAFGLWSLPSFDEPRDEPAVAAPQVPAVAEPAPAPPAVEEVELETVKPPTLEEIEAIRQDAYNEGFATGERDGFHAGQLKARQEAEEALKERLQSLERLMTQLLEPIAEQDALIEQGMVNLVNHVARQVIQRELHMDSSHVRQVLREALKLLPMGAANIRIHVNPQDFERVKALRERHEESWRILEDDSLLPGGCRIETEHSRIDATIETRLAQAVKQLFEQQREQATHPLASDIRIDLDAPGDVDAP	not soluble
GHMIQESTMEMTNAQRLILSNQYKMMTMLDPANAERYRRLQTIIERGYGLQMRELDREFGELKEETCRTIIDIMEMYHALHVSWSNLQDQQSIDERRVTFLGFDAATEARYLGYVRFMVNVEGRYTHFDAGTHGFNAQTPMWEKYQRMLNVWHACPRQYHLSANEINQIINA	soluble
MSLARQVTAFNTGWQFKKGPFATDPMRAASQWDGKWETVEIPHTWNAMDMQVQSGSFYEGAGYYRKTQFFPHDLEGKRVFLRFEGVGACAEVYVNGKLAGTHKGGYSAFACEIGTALKLGAENEIIVKADNKARPDVIPVNQNLFGVYGGIYRPVWLIVTEQNNITVTDCASPGVYITQKDVSKKSADITVKVKLDNAGLQPAAVTLENTIYTQEGQKVGTHSRSFDLSPQGTQTYLSTFKLKNPHLWQGRKDPYLYKVVCRLMADGKVIDEVVQPLGVRKYEIVAGKGFFLNGEKYSMYGVTRHQDWWGLGSALKNEHHDFDLAAIMDVGATTVRFAHYQQSDYLYSRCDTLGLIIWAEIPCVNRVTGYETENAQSQLRELIRQSFNHPSIYVWGLHNEVYQPHEYTAALTRSLHDLAKTEDPDRYTVSVNGYGHMDHPVNLNADIQGMNRYFGWYEKKIQDIKPWVEQLEKDYPYQKLMLTEYGADANLAHQTEYLGDALNWGKPFYPETFQTKTHEYQWSIIKDHPYIIASYLWNMFDFAVPMWTRGGVPARNMKGLITFDRKTKKDSYFWYKANWSEEPVLYLTQRRNADREKRTTAVTVYSNIGTPKVYLNGQELSGIRNGYTDVHYVFDNVSLADGKNILKAVVSTKGKEYTDEIEWNYSGEKNREIDSYENKNEHSGEGHHHHHH	soluble
MAHHHHHHMYLHLIKNSTAKTPQLYTAKDNSKTAMHLLTRRAANANYTVNRWYLKEKVDSSNRMRLEGLYECVLCASCTGSCPQYWWNREHFLGPAVLLQSYRWLVEPLDRDFDERVRMFETGNLVNMCHNIFNCSITCPKFLNPGLASKEIKRLSSPSTKRVGPAIEMEPVTSGKEAGKRSLLQRL	soluble
MFFSNSLHANAAPQHFERIAKILQAKRRAGDFSTCDVKIQLKTGFDMVHSVVICAHSDVFSETFDNQRAPYQPFNMTDFDPDSVRRVFDWMYSGEIDIPETTIADVLAVASYLRVTMLQRQIEQKILNHNGSPIMALNIASARAFSVMDHTMNDLVHGFTEKMTGLGIDEVAKLTANSMIAVMAAVLPMKKKVPLVNMFISWIVCKQPERETINTIIQSLVISDITYDTLYAIRYSLKQYLTNSEIASKSQLTISPSGTIEIKIVPKKESMVSEKSSSLHSVVELPPNQYYRTRSEISAIDKMPDPFVRNLPRTQSASSMIARPRSSGGFPQYFTRSEVEDLQQMTDPFSKSERGMTPTRGPPMGFSSVQCTVKYPGWSKDVMETNKEMYKQCKMNGRYILSEAQTESNAPVFLRPAVGGKVSSSRGALSNLSNSEQNKKYGRGVTQSFSGHSLNDNDPMPKEHDPKVQPSVIISCLSLPTTSPVSVVKPKMTGVKKTDSEIMEINALPSSFNSNSFYTAKTSNTSGHSNDQSAGKSEKSQRSQKSEKSQKLKKPIPQSQYLYPN	not soluble
MGSDKIHHHHHHMADDETRKYVIPGLERGLTILMALSRSHREMSLAEIVKCVEWPKASVYRAVQTLEYMGFVRRHPSSGLYSLGVSVLRLGFEYVSSLDLVQVGQPVIESLRDRSGCSSHIVIRDGRDVIYVARVSAAGTTTHRVSVGTRLPVHRTSLGRVLLTGMSREAFERLYPDPELPDTRPGAPADREALWQLVQDDRARGYVVGESFFQLGISSIVYPLFTQEGDVAGAISIMVPVHEIPAEDRERLRGYVEDAAMTISEMLGYHDPRARRSDMP	not soluble
SNSLHWPTSLPSGDAFSSVGTHRFVQKVEEMVQNHMTYSLQDVGGDANWQLVVEEGEMKVYRREVEENGIVLDPLKATHAVKGVTGHEVCNYFWNVDVRNDWETTIENFHVVETLADNAIIIYQTHKRVWPASQRDVLYLSVIRKIPALTENDPETWIVCAFSVDHDSAPLNNRCVRAKINVAMICQTLVSPPEGNQEISRDNILCKITYVANVNPGGWAPASVLRAVAKREYPKFLKRFTSYVQEKTAGKPILF	soluble
MKYDTSELCDIYQEDVNVVEPLFSNFGGRASFGGQIITVKCFEDNGLLYDLLEQNGRGRVLVVDGGGSVRRALVDAELARLAVQNEWEGLVIYGAVRQVDDLEELDIGIQAMAAIPVGAAGEGIGESDVRVNFGGVTFFSGDHLYADNTGIILSEDPLDIE	soluble
MAEDYKLIDNEEKHRYEFQIDDKIAKIDYIKSNNGEIYLVHTEVPASLGGRGVGSQLAEKTLADIERQGLRLVPLCPFVAGYIHKHPEWKRIVMRGIHIK	not soluble
VCQILEVDRSTYHYKSRRPGQASLESKIKEICQTRVRYGYRRVHVLLRREGWLINQKKTRRIYRELGLQLRNKTPKRRVRAKLRDDRRDATHPNETWAMDFVHDQLATGNKIRVLTVVDLFSRYSPVLDPRFSYRAENVVQTLEHTWAAVGYPKTIRVDQGSEFISRELDLWAYSNGVTLDFSRPGKPTDNAFIEAFNGRFRAECLNTHWFLTLDDARSKLEDWRRYYNEQRPHGAIGNRPPITLHNRDSDPSSPS	soluble
MGSDKIHHHHHHLPKLREDFKMQNKSVFILGASGETGKVLLKEILGQNLFSKVTLIGRRKLTFEEEAYKNVNQEVVDFEKLDVYASAFQGHDVGFCCLGTTRSKAGAEGFVRVDRDYVLKSAELAKAGGCKHFNLLSSRGADKSSSFLYLQVKGEVEAKVEELKFDRLSVFRPGVLLCDRQESRPGEWLARKFFGSLPDSWASGYAVPVVTVVRAMLNNLVSPSSGQMELLENKAILHLGKDRDVPKL	soluble
GPLGSQELRLRVQGKEKHQMLEISLSPDSPLKVLMSHYEEAMGLSGHKLSFFFDGTKLSGKELPADLGLESGDLIEVWG	soluble
LRLWALTATECRLLLSTRWNVGRLYQLPVAASAEFASYQTQRDQLRQTFKNIASEILNPDDPRTDLPFHIALSVIEMRSNDGVVPEPLRDDE	not soluble
MGSDKIHHHHHHMRKIKLIIFPGYYIPHIGGLETHVDEFTKHLSEDENYDIYIFAPNIPKYKEFEIRHNNVKVYRYPAFEIIPNYPVPNIFNIKFWRMFFNLYKIDFDIVMTRTRFFSNTLLGFIFAKLRFKKKKLIHVEHGSAFVKLESEFKNKLSYFYDKTIGKLIFKKADYVVAISKAVKNFILENFVNDKDIPIIYRGLEIEKIESIGEDKKIKEKFKNKIKLCFVGRLYKWKGVENIIKAYVDLPKDLKEKIILIVVGYGEDLERLKKLAGNYLNNGIYFTGKVDFEKAIAIVKASDIYIHSSYKGGGLSSSLLQAMCCGKAIVASPYEGADEVVIDGYNGILLKDNSPEEIKRGIIKLIENNNLRKIYGENAKNFIKENFNWKKSVKEYKKIFERLVN	not soluble
MSCPYIDEDKIVGNVEMELKKGGTFDKLRKQAIEHVKDSKLVHRIENEMLVKVDEIIASSANLTQEEIQRKMKDFMNENAKMRNDINRQIRVEFEKEWVHDELDKEIDEKVNKQLENSI	not soluble
EVVEDVLTNAIENGSSIQDIELTLKDMPQFDRERARTTAITEVLAASSAAQHESYAQSPAVKKKKWRHSGGKKNNPRENHIDLDGTVIGVDEEFQIPGSSETCMFPRDPKLSTRERVNCHCVLS	not soluble
ATQFTASILSLYNSEQMLQKTDPMSVISSAMVAATLDLPIDKNLGYAWIVPYGGKAQFQLGYKGYIQLALRTGQYKSINCIPIHEGELQKWNPLTEEIEIDFEKRESDAVIGYAAYFELINGFRKTVYWTKAQVEKHKKKFSKSDFGWKNDWDAMALKTVLKAVLSKWGILSVEMQKAVIEEDETRERIDITNEADSSEIIDSE	not soluble
MEKPASKSKRKPKETSDDVDADVLPEKGLHNSDGFLFYHASFRPLTSAQHRRAEEHGIDLKTKKVFTVEESIQVFENWRKFATEHNMKLAKAPEYISPKKTDRHIFKHQEEHHFWPKLCDGLPHRPACTIKMRAISMMTSSFMENLEWSRLAEEIKAKLHTYETNDDLTMQKAQKLLEKGYAASHVAEILNVSNGKMSSMASKLRTLEARNDPTMIHAFYESTVYFGLKLKKLRRAITTNDDYRIESVRRKVRLEEIGLQLHISEQKCKDLLKIVIETIRTKYTESLEEAGLDEDEAWSKALALVDSRPPIEESQLYKALEIICKHIEKAETTGSLLSHEQLPSIIKSHGITGFQSDRSEYAYLHFRLCGLLMHQLTTGFFEHLRREFPLQIKLHCLLWSYKRLDVWEKICVEEGKTRYETVLKSEIANPLASKMTLKFLKNEKVVEWISDPRPPKNRQKAATRRLETAIESFILYSYNKFGETFKFPAKFRRILHTSKTVRSVLEVVSDPENAEFLSIKEARKTVEDASGCKIAVKIKNKRIVPKLKDESDASEDGESENSDSEDLIKHSHSIERSAFEERRDEIEKVLQRADPSKIRAKFRKKDEIPEEILLSKELRQQKRAMTRAAEKLERLEAKICSAEFIDDGSGCSYSQVDEDLLEREKKRKRKKSEASEVVIGTDQLDTAEDLQGSKKKKHAEVLEGKDHEDTGCSDSQQVMDPEVCEDLVEKEKKKKRKRKISEASEVVIGMNQMERAEDLQRSKKKKHAEILEGNDHEDSENLKKRSKKKKKRKDHDAEFDAELDLDSENLDEEPKKRKKHC	soluble
MGRYKDETPAVRVYTVCDESRYMIVRNVPALGCGDDLMRLFMTYGEVEEFAKRKLDESSFLGNRLQISYAPEYENVNDTKDKLESRRKEVLARLNPQKEKSTSQVTKLAGPALTQTDNVSSQRREMEYQFHRGNAPVTRVSSDQEYFASSSMNQTVKTVREKLNKTREENISSLSHCKQIEESGNQKRLQPSSQTQPEESGNQKRLQPSSQIQPDLKRTRVDNRRRI	not soluble
MAHHHHHHMDIERLAKNATEITHQSLMLKNIQKEQNNYCKQCGYIYNYDDYMYMYMKRFNLSKWRETSNCLSGRNPYGPFSGGMESSQFDNENCIRCIYCGAIIDTIEMYDHWNGKESYIELNSYREKFIFDKNKKSYWKNKITSLEKNVSLFKEDQNQAYNITYEKCTDCGNDFLHFINIQTRSADEGSTIIYFCPNCKKQTTVNN	not soluble
